Non-standard residues stand in square brackets, D forms with d. No end group written: not given here. Phe(3,5-F2) = N[C@@H](Cc1cc(F)cc(F)c1)C(=O)O
What was measured:
Settings in all cases: both partners purified
[1] = target: T1, TEAD3 (Q216–D435), YAP-binding domain, His-tagged (human, UniProt Q99594 216-435); assay: AlphaScreen or HTRF; TEAD–YAP TR-FRET: His-tagged TEAD (YAP-binding domain) with europium anti-His antibody, preincubated 30 min with small molecules; biotinylated YAP peptide (50–100) with streptavidin-XL665; 60 min, room temperature; read at 665 and 615 nm
T1 construct: The construct has a TEV site after the His tag; treated with 2.5% hydroxylamine; source: E. coli BL21 (DE3), autoinduction, purified (hydroxylamine treated, size exclusion); not shown: His6, N-terminal, kept

[2] = target: T2, TEAD2 (A217–D447), YAP-binding domain, His-tagged (human, UniProt Q15562 217-447); assay: 1D 19F NMR of the free peptides; 20 μM S2, 20 μM S3 and 10 μM TEAD2 in PBS (100% D2O), pH 7.4, 298 K; displacement by addition of 55 μM compound 2, GNE-7883 or pepYAP
T2 construct: The construct has a TEV site after the His tag; The tag is kept in the TR-FRET/HTRF assays (anti-His detection); Treated with 2.5% hydroxylamine; source: E. coli BL21 (DE3), autoinduction, purified (hydroxylamine treated, size exclusion); not shown: His6, N-terminal, kept

[3] = target: T2, TEAD2 (A217–D447), YAP-binding domain, …; assay: AlphaScreen or HTRF; site 2/site 3-specific HTRF: His-tagged TEAD preincubated 30 min with compounds in 50 mM HEPES pH 7.2, 100 mM NaCl, 0.01% Tween-20, 0.5 mg/ml bovine gamma globulin, 1 mM dithiothreitol; biotinylated probe added for 60 min; europium anti-His and streptavidin-XL665; room temperature

T2 sequence (Q15562 217-447): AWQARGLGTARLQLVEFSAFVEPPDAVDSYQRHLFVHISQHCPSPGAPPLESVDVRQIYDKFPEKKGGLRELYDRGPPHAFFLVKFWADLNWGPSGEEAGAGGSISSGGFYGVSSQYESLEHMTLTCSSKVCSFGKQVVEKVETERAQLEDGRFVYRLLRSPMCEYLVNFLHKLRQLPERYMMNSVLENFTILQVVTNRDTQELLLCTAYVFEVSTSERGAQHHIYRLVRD
T1 sequence (Q99594 216-435): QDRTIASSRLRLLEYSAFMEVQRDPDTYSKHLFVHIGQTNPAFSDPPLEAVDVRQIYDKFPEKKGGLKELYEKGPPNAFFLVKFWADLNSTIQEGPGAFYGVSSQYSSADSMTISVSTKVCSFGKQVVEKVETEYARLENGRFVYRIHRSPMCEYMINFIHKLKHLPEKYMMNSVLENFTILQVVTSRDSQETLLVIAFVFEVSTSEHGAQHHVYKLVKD

B1: biotinylated YAP peptide (amino acids 50–100) (peptide, UniProt P46937 50-100, looked up)
peptide: AGHQIVHVRGDSETDLEALFNAVMNPKTANVPQTVPMRLRKLPDSFFKPPE
modifications: biotin (position not given)
notes: YAP (Yes-associated protein), amino acids 50–100; Held by streptavidin-XL665 in the assay; also called YAP 50–100
binding result [1]: binds

B2: S3, 19F-labeled YAP peptide (residues 80–100) (peptide)
peptide: Ac-VPQTVPMRLRKLPDS[Phe(3,5-F2)]FKPPE
modifications: not fully specified
notes: YAP residues 80–100; Phe95 is 3,5-difluoro-phenylalanine; also called peptide S3; source: synthetic peptide, bought: ABclonal
binding result [2]: binds

B3: pepYAP, YAP peptide (amino acids 60–100) (peptide)
peptide: DSETDLEALFNAVMNPKTANVPQTVPMRLRKLPDSFFKPPE
notes: source: synthetic peptide, bought: ABclonal
binding result [2]: binds

B4: biotinylated mouse vestigial-like protein 1 peptide, amino acids 20–51 (site 2 probe) (peptide, UniProt Q99NC0 20-51, looked up)
peptide: KTEWNAGSVIFTYFEGDINSMVDEHFSRALRN
modifications: also: biotin, position not given here
notes: mouse vestigial-like protein 1 (Vgll1), amino acids 20–51; also called mVgll1; Vgll1 peptide
binding result [3]: binds

B5: S2, 19F-labeled YAP peptide (residues 59–81) (peptide)
peptide: Ac-GDSETDLEAL[Phe(3,5-F2)]NAVMNPKTANVP
modifications: not fully specified
notes: YAP residues 59–81; Phe69 is 3,5-difluoro-phenylalanine; also called peptide S2; source: synthetic peptide, bought: ABclonal
binding result [2]: binds
